Data from patent US10501549B2, “Methods of inhibiting pathological angiogenesis with doppel-targeting molecules” (SEOUL NATIONAL UNIVERSITY R&DB FOUNDATION, priority 2015, dated 2019).

B1: 5C7: murine anti-doppel mAb of hybridoma clone 5C7; VL SEQ ID NO: 53, VH SEQ ID NO: 59 (antibody, V domains shown)
VH: QVQLQQSGTELVRPGSSVKISCKASGYAFSSHWMNWVKQRPGQGLEWIGQIYPRNGDTNYNGKFKGKATLTADKSSSTAYMQLSSLTSEDSAVYFCSRSTTIVTTGAYWGQGTLVTVSA
VL: DIQMTQSPSSLSASLGERVSLTCRASQEISGYLSWLQQKPDGTIKRLIYAASILDSGVPKRFSGSRSGSDYSLTISSLESEDFADYYCLQYASYPFMFGAGTKLELKR
B2: 4D6: murine anti-doppel mAb of hybridoma clone 4D6; VL SEQ ID NO: 49, VH SEQ ID NO: 55 (antibody, V domains shown)
VH: QVQLHQSGSELARPGASVKLSCKASGYTFTNYWMQWVKQRPGQGLEWIGAIYPGDGNTRYSQKFKGKATLTADKSSSTAYMQLSSLASEDSAVYYCARRDYGSSYWYFDVWGAGTTVTVSS
VL: DVLMTQTPLSLPVSLGDQASISCRSSQSIVHSNGNTYLEWYLQKPGQSPKLLIYKVSNRFSGVPDRFSGSGSGTDFTLKISRVEAEDLGVYYCFQGSHVPLTFGAGTKLELKR

How the values were obtained:
[1] = tested on: HUVEC spheroids; assay: HUVEC spheroid sprouting with VEGF and rDPl; format: cell-based, human; details: co-treated with VEGF, different concentrations rDPl
Method: To test this hypothesis, HUVEC spheroids were treated with VEGF in the presence or absence of rDPl. VEGF promoted HUVEC spheroid sprouting; the sprouting was augmented when co-treated with different concentrations rDPl and in Hu.dpl spheroids (FIG. 27A).

[2] = tested on: EL4 tumor; assay: Rescue of EL4 tumor growth in Dpl+/− KO mice by rDPl; format: in vivo, Dpl+/− KO C57BL/6 mice
Method: To rescue angiogenesis and growth of tumor, Dpl^+/− KO mice were treated with intravenous injection of 1 mg/kg of rDPl three times after the 4th day of EL4 tumor inoculation. EL4 cells were also inoculated with 1 and 10 μg of rDPl in a mixture with 50 μL of Matrigel, in Dpl^+/− KO mice and grown for 10 days.

[3] = tested on: HUVEC spheroids; assay: HUVEC spheroids implanted in Matrigel-fibrin gel in vivo; design: species or system SCID mice; details: VEGF and rDPl-treated HUVEC spheroids
Source text: HUVEC spheroids in vivo were implanted in Matrigel-fibrin gel in the presence of doppel and VEGF following an established protocol (see Alajati et al., Nat Methods. 5:439-445 (2008) and Laib et al., Nat Protoc. 4:1202-1215 (2009)); Hu.dpl spheroids were used to compare. […] In contrast, the presence of VEGF and rDPl generated a complete and perfused vascular bed in the Matrigel-fibrin gel. […] These findings support that rDPl enhances angiogenesis in tumor.

[4] = tested on: VEGFR2; assay: VEGF-induced VEGFR2 phosphorylation in HUVECs in presence of rDPl; format: cell-based, human; details: in the presence of rDPl
[5] = tested on: TEC spheroids; assay: TEC spheroid sprouting; format: cell-based, mouse
Method: The spheroid-based in vivo angiogenesis assay was performed according to a published procedure. Briefly, 8×10^6 TECs or TEC^−/−dpl were suspended in […] media containing 20% methocel solution and 80% culture medium. Cells were divided into non-adherent plastic square petri dishes, 25 μL for each spheroid. Spheroids formed by TECs or TEC^−/−dpl were harvested and mixed in a matrigel/fibrin mixture that contained mouse VEGF and bFGF. TECs or TEC^−/−dpl spheroids (1000 spheroids per plug) were inoculated subcutaneously in the flank of each female SCID mouse (5-6 weeks, Jungang Animal Lab, Korea) or female Balb/c nude mice (Orinet bio, Seongnam, Korea). The spheroids were allowed to grow for 3 weeks. Cy5.5-labeled LMWH, at a dose 2.5 mg/kg, was injected intravenously, and at 2 hours after injection, its accumulation at the site of TEC implantation was checked using Optimax-MX3 (GE Medical Systems, Milwaukee, Wis.). In other experiments, Cy5.5-labeled LHbisD4, at a dose 10 mg/kg, was administered orally, and its distribution was also checked as described previously. The matrix plug was removed and part of the plugs was analyzed for microvessel density and drug accumulation by immunofluorescence staining.
Custom made murine anti-doppel mAbs were acquired and tested for recognition of mouse doppel present in host-derived blood vessels of tumors, ability to block doppel function in vitro, and ability to arrest tumor growth. The selection strategy involved screening for binding with mouse doppel using ELISA and testing for ability to detect doppel protein in TEC lysates using western blot. Six independent clones (7D9, 1B12, 1C8, 5C7, 4D6, and 6F11) were identified. Of the six clones, 5C7 and 4D6 abrogated mouse VEGF (mVEGF)-induced sprouting of TEC spheroids (FIG. 20A, B).

[6] = tested on: CT26 colon cancer; assay: CT26 colon cancer model, tumor growth and angiogenesis; format: in vivo, mice; details: for tumor volume and weight: intravenous 5 and 10 mg/kg, compared to saline and control IgG; for reduction of tumor growth: intravenous
Method: Based on the in vitro data, clones 4D6 and 5C7 were selected to study the anti-tumor and anti-angiogenic effect of in a murine-derived CT26 colon cancer model. When the tumors reached an average size of 50 mm^3, the mice were treated with intravenous doses of 5 and 10 mg/kg 4D6 and 5C7 mAb clones. […] When administered at a dose of 10 mg/kg once or twice a week, 4D6 mAb reduced the tumor growth by 71.1±4.2% or 87.9±3.9%, respectively.

[7] = Preliminary safety observations in treated tumor-bearing mice; format: in vivo
[8] = tested on: VEGFR2; assay: mVEGF-induced VEGFR2 phosphorylation in TECs (immunoblot); format: cell-based, mouse; details: purified clones
[9] = target: doppel (Mus musculus, UniProt Q9QUG3); assay: Epitope mapping; format: binding; details: doppel peptide mapping
Source text: (The same sequence appears in both mouse and human doppel.) FIG. 32 discloses SEQ ID NOS 63-98, respectively, in order of appearance, in the x-axis of the graph and SEQ ID NO: 11 in the body of the graph.
(The corresponding sequence in human doppel is FPDGIH (SEQ ID NO: 61).) FIG. 33 discloses SEQ ID NOS 63-98, respectively, in order of appearance, in the x-axis of the graph and SEQ ID NOS 99-102, 12 and 103-104, respectively, left to right, in order of appearance, in the body of the graph.

[10] = tested on: VEGFR2; assay: VEGFR2 dimerization/clustering in Hu.dpl cells (proximity ligation assay, western blot); format: cell-based, human
Source text: The effect of doppel on VEGFR2 dimerization in the absence of VEGF was investigated. In situ proximity ligation assay (PLA) was used to see VEGFR2 homodimers/clusters in intact cells (FIG. 22G, H). […] It was observed that the dynamics between VEGFR2 monomer-dimer using western blot (FIG. 28A). In HUVECs, the prominent 125 kDa and a relative weaker 250 kDa band appeared as VEGFR2 monomer and dimer, respectively. In Hu.dpl cells, VEGFR2 was detected at 250 kDa band in immunoblots.

[11] = tested on: HCT116 human colon cancer; assay: HCT116 human colon cancer mouse xenograft; format: in vivo, mice
Source text: The antitumor effect of 4D6 mAb was also observed in HCT116 human colon cancer mouse xenografts. 4D6 mAb inhibited tumor growth (FIG. 19C, D), doppel- and CD31-positive tumor vessels (FIG. 19E), and mean tumor blood vessels density commensurately with dose and dosing frequency (FIG. 19F, G).

[12] = mVEGF-induced, cell supernatants of clones
[13] = purified clones, different concentrations

| epitope bound [9] | Molecule | HUVEC spheroid sprouting [1] | growth of tumors ([2]; EL4 cells inoculated with 1 and 10 μg of rDPl in Matrigel) | localization in tumor tissues ([2]; intravenously injected rDPl) | hemoglobin content of spheroid plugs [3] | VEGFR2 phosphorylation by VEGF [4] | sprouting of TEC spheroids [5, 12] | sprouting of TEC spheroids [5, 13] | tumor volume and weight [6] | body weight [7] | clinical chemistry or hematological blood profile [7] | organ pathology upon inspection and histological analysis [7] | VEGFR2 phosphorylation in TECs [8] | VEGFR2 dimerization/clustering ([10]; Hu.dpl cells, in situ PLA) | VEGFR2 band in immunoblot ([10]; treated Hu.dpl cells, untreated Hu.dpl 250 kDa (dimer)) | reduction of tumor growth ([6]; 10 mg/kg once a week) | reduction of tumor growth ([6]; 10 mg/kg twice a week) | doppel- and CD31-positive tumor vessels and mean tumor blood vessels density ([11]; commensurately with dose and dosing frequency) | tumor growth ([11]; intravenous 5 and 10 mg/kg once a week, 10 mg/kg twice a week) |
| --- | --- | --- | --- | --- | --- | --- | --- | --- | --- | --- | --- | --- | --- | --- | --- | --- | --- | --- | --- |
|  | rDPl: recombinant doppel (rDPl) protein | augmented | dose dependently rescued | concentrated and colocalized with VEGFR2- and CD31-positive vessels | higher than control and VEGF-treated spheroids | robustly and dose dependently increased |  |  |  |  |  |  |  |  |  |  |  |  |  |
| FPDGIY | B1 |  |  |  |  |  | abrogated | dose-dependently prevented | markedly regressed | no changes | no alteration | no obvious organ pathology | dose-dependently prevented | severely compromised | 125 kDa |  |  |  |  |
| YWQFPD | B2 |  |  |  |  |  | abrogated | dose-dependently prevented | markedly regressed | no changes | no alteration | no obvious organ pathology | dose-dependently prevented |  |  | 71.1±4.2% | 87.9±3.9% | inhibited | inhibited |
